Data published in patent US20140087995A1 (published 2014).
Numbered stars: 1 amine (or outer) side, 2 acyl side, 3 side chain; on linkers, the order of the positions; unused ones are H or OH. Bridge positions count the residues as written; N and C are the ends. Side chains are listed from the residue outwards. Ends that are not written are not given here. * marks the point of attachment. C20 diacid = O=C(O)CCCCCCCCCCCCCCCCCCC(=O)*; γGlu = O=C(O)[C@H](CCC(=O)[*:2])N[*:1]

T1: human amylin receptor (amylin 3(a) receptor: human calcitonin receptor plus RAMP-3) (human, UniProt P30988 25-474; O60896 24-148)
T1 sequence (looked up) 1: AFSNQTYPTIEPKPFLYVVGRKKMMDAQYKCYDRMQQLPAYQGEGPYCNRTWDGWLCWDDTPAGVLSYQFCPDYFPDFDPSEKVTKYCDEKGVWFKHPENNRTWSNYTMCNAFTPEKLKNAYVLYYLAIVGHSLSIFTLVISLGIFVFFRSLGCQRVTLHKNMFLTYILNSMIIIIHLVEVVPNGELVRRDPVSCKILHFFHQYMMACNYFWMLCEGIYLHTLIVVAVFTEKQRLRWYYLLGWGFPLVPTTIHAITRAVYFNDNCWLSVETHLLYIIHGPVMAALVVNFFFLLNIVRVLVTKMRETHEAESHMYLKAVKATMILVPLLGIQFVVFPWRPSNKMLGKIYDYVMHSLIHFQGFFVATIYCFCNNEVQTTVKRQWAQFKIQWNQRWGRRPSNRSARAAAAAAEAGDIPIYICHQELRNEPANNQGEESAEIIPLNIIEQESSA
T1 sequence (looked up) 2: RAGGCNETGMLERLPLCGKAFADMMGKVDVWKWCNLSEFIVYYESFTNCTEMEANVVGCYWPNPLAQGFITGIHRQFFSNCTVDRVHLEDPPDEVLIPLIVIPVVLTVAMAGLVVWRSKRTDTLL

T2: human calcitonin receptor (human, UniProt P30988 25-474)
T2 sequence (looked up): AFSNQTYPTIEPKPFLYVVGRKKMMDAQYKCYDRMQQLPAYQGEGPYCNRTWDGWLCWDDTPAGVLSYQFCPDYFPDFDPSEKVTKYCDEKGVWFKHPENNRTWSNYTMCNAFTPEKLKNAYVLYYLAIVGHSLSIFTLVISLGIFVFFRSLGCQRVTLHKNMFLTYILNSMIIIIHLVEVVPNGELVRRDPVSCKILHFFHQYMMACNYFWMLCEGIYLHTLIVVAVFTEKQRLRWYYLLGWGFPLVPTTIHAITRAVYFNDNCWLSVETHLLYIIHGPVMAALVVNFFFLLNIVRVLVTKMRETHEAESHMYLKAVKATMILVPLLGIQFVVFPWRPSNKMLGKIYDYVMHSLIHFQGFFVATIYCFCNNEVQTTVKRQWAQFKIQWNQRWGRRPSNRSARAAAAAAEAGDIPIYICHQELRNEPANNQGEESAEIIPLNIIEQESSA


Legend:
[1] = molecular target: T1, human amylin receptor (amylin 3(a) …); test: cell-based or functional assay
[2] = molecular target: T2, human calcitonin receptor; test: cell-based or functional assay
[3] = molecular target: T1, human amylin receptor (amylin 3(a) …); test: SPA competition binding, displacement of 125I-rat amylin, membranes of BHK amylin 3(a)/CRE-luc cells
Outline: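 SPA beads with BHK Amylin 3(a)/CRE-luc cell membranes (35 ng/μL final) in 50 mM Hepes pH 7.4, 1 mM CaCl2, 5 mM MgCl₂, 0.1% OA, 0.02% Tween20.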

| Binder | Ratio hCT/hAmylin funct. [1] | hAmylin-R funct. EC50 (pM) [1] | hCTR funct. EC50 (pM) [2] | IC50 [3] |
| --- | --- | --- | --- | --- |
| K([γGlu-C20 diacid])RCNTATCATQRLANFLRHSSPNFGAIPSSTNVGSHTY-NH2 (disulfide 3-8; N-terminus assumed; SMILES CC[C@H](C)[C@H](NC(=O)[C@H](C)NC(=O)CNC(=O)[C@H](Cc1ccccc1)NC(=O)[C@H](CC(N)=O)NC(=O)[C@@H]1CCCN1C(=O)[C@H](CO)NC(=O)[C@H](CO)NC(=O)[C@H](Cc1c[nH]cn1)NC(=O)[C@H](CCCNC(=N)N)NC(=O)[C@H](CC(C)C)NC(=O)[C@H](Cc1ccccc1)NC(=O)[C@H](CC(N)=O)NC(=O)[C@H](C)NC(=O)[C@H](CC(C)C)NC(=O)[C@H](CCCNC(=N)N)NC(=O)[C@H](CCC(N)=O)NC(=O)[C@@H](NC(=O)[C@H](C)NC(=O)[C@@H]1CSSC[C@H](NC(=O)[C@H](CCCNC(=N)N)NC(=O)[C@@H](N)CCCCNC(=O)CC[C@H](NC(=O)CCCCCCCCCCCCCCCCCCC(=O)O)C(=O)O)C(=O)N[C@@H](CC(N)=O)C(=O)N[C@@H]([C@@H](C)O)C(=O)N[C@@H](C)C(=O)N[C@@H]([C@@H](C)O)C(=O)N1)[C@@H](C)O)C(=O)N1CCC[C@H]1C(=O)N[C@@H](CO)C(=O)N[C@@H](CO)C(=O)N[C@H](C(=O)N[C@@H](CC(N)=O)C(=O)N[C@H](C(=O)NCC(=O)N[C@@H](CO)C(=O)N[C@@H](Cc1c[nH]cn1)C(=O)N[C@H](C(=O)N[C@@H](Cc1ccc(O)cc1)C(N)=O)[C@@H](C)O)C(C)C)[C@@H](C)O, also called compound 44) | 24 | 198 pM | 4750 pM | 0.275 nM |
| K([γGlu-γGlu-C20 diacid])CNTATCATQRLAEFLRHSSPNFGAIPSSTNVGPETP-NH2 (disulfide 2-7; N-terminus assumed; SMILES CC[C@H](C)[C@H](NC(=O)[C@H](C)NC(=O)CNC(=O)[C@H](Cc1ccccc1)NC(=O)[C@H](CC(N)=O)NC(=O)[C@@H]1CCCN1C(=O)[C@H](CO)NC(=O)[C@H](CO)NC(=O)[C@H](Cc1c[nH]cn1)NC(=O)[C@H](CCCNC(=N)N)NC(=O)[C@H](CC(C)C)NC(=O)[C@H](Cc1ccccc1)NC(=O)[C@H](CCC(=O)O)NC(=O)[C@H](C)NC(=O)[C@H](CC(C)C)NC(=O)[C@H](CCCNC(=N)N)NC(=O)[C@H](CCC(N)=O)NC(=O)[C@@H](NC(=O)[C@H](C)NC(=O)[C@@H]1CSSC[C@H](NC(=O)[C@@H](N)CCCCNC(=O)CC[C@H](NC(=O)CC[C@H](NC(=O)CCCCCCCCCCCCCCCCCCC(=O)O)C(=O)O)C(=O)O)C(=O)N[C@@H](CC(N)=O)C(=O)N[C@@H]([C@@H](C)O)C(=O)N[C@@H](C)C(=O)N[C@@H]([C@@H](C)O)C(=O)N1)[C@@H](C)O)C(=O)N1CCC[C@H]1C(=O)N[C@@H](CO)C(=O)N[C@@H](CO)C(=O)N[C@H](C(=O)N[C@@H](CC(N)=O)C(=O)N[C@H](C(=O)NCC(=O)N1CCC[C@H]1C(=O)N[C@@H](CCC(=O)O)C(=O)N[C@H](C(=O)N1CCC[C@H]1C(N)=O)[C@@H](C)O)C(C)C)[C@@H](C)O) | 0.8 | 132 pM | 102 pM | 0.533 nM |
| K([γGlu-γGlu-C20 diacid])CNTATCATQRLAEFLRHSSNNPGAILSSTNVGPETY-NH2 (disulfide 2-7; N-terminus assumed; SMILES CC[C@H](C)[C@H](NC(=O)[C@H](C)NC(=O)CNC(=O)[C@@H]1CCCN1C(=O)[C@H](CC(N)=O)NC(=O)[C@H](CC(N)=O)NC(=O)[C@H](CO)NC(=O)[C@H](CO)NC(=O)[C@H](Cc1c[nH]cn1)NC(=O)[C@H](CCCNC(=N)N)NC(=O)[C@H](CC(C)C)NC(=O)[C@H](Cc1ccccc1)NC(=O)[C@H](CCC(=O)O)NC(=O)[C@H](C)NC(=O)[C@H](CC(C)C)NC(=O)[C@H](CCCNC(=N)N)NC(=O)[C@H](CCC(N)=O)NC(=O)[C@@H](NC(=O)[C@H](C)NC(=O)[C@@H]1CSSC[C@H](NC(=O)[C@@H](N)CCCCNC(=O)CC[C@H](NC(=O)CC[C@H](NC(=O)CCCCCCCCCCCCCCCCCCC(=O)O)C(=O)O)C(=O)O)C(=O)N[C@@H](CC(N)=O)C(=O)N[C@@H]([C@@H](C)O)C(=O)N[C@@H](C)C(=O)N[C@@H]([C@@H](C)O)C(=O)N1)[C@@H](C)O)C(=O)N[C@@H](CC(C)C)C(=O)N[C@@H](CO)C(=O)N[C@@H](CO)C(=O)N[C@H](C(=O)N[C@@H](CC(N)=O)C(=O)N[C@H](C(=O)NCC(=O)N1CCC[C@H]1C(=O)N[C@@H](CCC(=O)O)C(=O)N[C@H](C(=O)N[C@@H](Cc1ccc(O)cc1)C(N)=O)[C@@H](C)O)C(C)C)[C@@H](C)O) | – | 5170 pM | 89600 pM | 1.19 nM |
| K([γGlu-γGlu-C20 diacid])CNTATCATQRLAEFLRHSSPNFGAIPSSTNVGPHTY-NH2 (disulfide 2-7 (inferred)) | – | 172 pM | 2830 pM | 0.377 nM |

The next binders have a lower IC50 [3] than those just listed; values first:

| Ratio hCT/hAmylin funct. [1] | hAmylin-R funct. EC50 (pM) [1] | hCTR funct. EC50 (pM) [2] | IC50 [3] | Binder |
| --- | --- | --- | --- | --- |
| 5.8 | 222 pM | 1280 pM | 0.069 nM | K([γGlu-γGlu-C20 diacid])CNTATCATQRLAEFLRHSSPNFGAILSSTPVGPETY-NH2 (disulfide 2-7 (inferred)) |
| 8.1 | 109 pM | 887 pM | 0.076 nM | K([γGlu-γGlu-C20 diacid])CNTATCATQRLASFLRHSSPNFGAIPSSTNVGPETY-NH2 (disulfide 2-7; N-terminus assumed; SMILES CC[C@H](C)[C@H](NC(=O)[C@H](C)NC(=O)CNC(=O)[C@H](Cc1ccccc1)NC(=O)[C@H](CC(N)=O)NC(=O)[C@@H]1CCCN1C(=O)[C@H](CO)NC(=O)[C@H](CO)NC(=O)[C@H](Cc1c[nH]cn1)NC(=O)[C@H](CCCNC(=N)N)NC(=O)[C@H](CC(C)C)NC(=O)[C@H](Cc1ccccc1)NC(=O)[C@H](CO)NC(=O)[C@H](C)NC(=O)[C@H](CC(C)C)NC(=O)[C@H](CCCNC(=N)N)NC(=O)[C@H](CCC(N)=O)NC(=O)[C@@H](NC(=O)[C@H](C)NC(=O)[C@@H]1CSSC[C@H](NC(=O)[C@@H](N)CCCCNC(=O)CC[C@H](NC(=O)CC[C@H](NC(=O)CCCCCCCCCCCCCCCCCCC(=O)O)C(=O)O)C(=O)O)C(=O)N[C@@H](CC(N)=O)C(=O)N[C@@H]([C@@H](C)O)C(=O)N[C@@H](C)C(=O)N[C@@H]([C@@H](C)O)C(=O)N1)[C@@H](C)O)C(=O)N1CCC[C@H]1C(=O)N[C@@H](CO)C(=O)N[C@@H](CO)C(=O)N[C@H](C(=O)N[C@@H](CC(N)=O)C(=O)N[C@H](C(=O)NCC(=O)N1CCC[C@H]1C(=O)N[C@@H](CCC(=O)O)C(=O)N[C@H](C(=O)N[C@@H](Cc1ccc(O)cc1)C(N)=O)[C@@H](C)O)C(C)C)[C@@H](C)O, also called compound 120) |
| – | 225 pM | 2360 pM | 0.121 nM | K([γGlu-γGlu-C20 diacid])CNTATCATQRLAEFLRHSSPNFGAIPSSTNVGPETY-NH2 (disulfide 2-7; N-terminus assumed; SMILES CC[C@H](C)[C@H](NC(=O)[C@H](C)NC(=O)CNC(=O)[C@H](Cc1ccccc1)NC(=O)[C@H](CC(N)=O)NC(=O)[C@@H]1CCCN1C(=O)[C@H](CO)NC(=O)[C@H](CO)NC(=O)[C@H](Cc1c[nH]cn1)NC(=O)[C@H](CCCNC(=N)N)NC(=O)[C@H](CC(C)C)NC(=O)[C@H](Cc1ccccc1)NC(=O)[C@H](CCC(=O)O)NC(=O)[C@H](C)NC(=O)[C@H](CC(C)C)NC(=O)[C@H](CCCNC(=N)N)NC(=O)[C@H](CCC(N)=O)NC(=O)[C@@H](NC(=O)[C@H](C)NC(=O)[C@@H]1CSSC[C@H](NC(=O)[C@@H](N)CCCCNC(=O)CC[C@H](NC(=O)CC[C@H](NC(=O)CCCCCCCCCCCCCCCCCCC(=O)O)C(=O)O)C(=O)O)C(=O)N[C@@H](CC(N)=O)C(=O)N[C@@H]([C@@H](C)O)C(=O)N[C@@H](C)C(=O)N[C@@H]([C@@H](C)O)C(=O)N1)[C@@H](C)O)C(=O)N1CCC[C@H]1C(=O)N[C@@H](CO)C(=O)N[C@@H](CO)C(=O)N[C@H](C(=O)N[C@@H](CC(N)=O)C(=O)N[C@H](C(=O)NCC(=O)N1CCC[C@H]1C(=O)N[C@@H](CCC(=O)O)C(=O)N[C@H](C(=O)N[C@@H](Cc1ccc(O)cc1)C(N)=O)[C@@H](C)O)C(C)C)[C@@H](C)O) |
